The target in experiment [1] is T1, acid β-glucosidase (GCase), Velaglucerase alfa (human, UniProt P04062 40-536, Chain 1 is a glycoprotein with N-linked, mannose-terminated oligosaccharides, which the letters do not carry.).
T1 construct: also called free GCase; human GCase
T1 sequence: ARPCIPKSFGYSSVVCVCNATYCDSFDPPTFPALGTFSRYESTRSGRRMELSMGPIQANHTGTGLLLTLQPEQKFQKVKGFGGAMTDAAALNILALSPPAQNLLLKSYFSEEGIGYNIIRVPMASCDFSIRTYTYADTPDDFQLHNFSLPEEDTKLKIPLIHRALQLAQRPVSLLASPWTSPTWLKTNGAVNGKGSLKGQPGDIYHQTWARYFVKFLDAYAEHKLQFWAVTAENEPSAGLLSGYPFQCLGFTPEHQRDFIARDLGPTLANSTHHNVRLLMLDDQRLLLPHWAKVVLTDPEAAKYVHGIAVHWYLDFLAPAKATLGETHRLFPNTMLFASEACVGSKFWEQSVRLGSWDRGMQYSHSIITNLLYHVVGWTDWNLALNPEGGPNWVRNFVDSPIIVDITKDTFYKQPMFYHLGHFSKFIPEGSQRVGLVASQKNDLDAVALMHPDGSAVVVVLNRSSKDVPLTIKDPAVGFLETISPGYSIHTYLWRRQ
The experiment in a line: microscale thermophoresis (MST); unlabelled GCase titrated against NBD-PS labelled SapC-DOPS, CP buffer pH 5.6. The protocol: (§1) Binding was determined by measuring Kd using a Microscale Thermophoresis (MST) assay system on a Monolith NT.115. MicroScale NanoTemper. Temperature related intensity change (TRIC) together with thermophoresis contribution to the variation of fluorescence intensity was determined. NBD-PS [2-(4-nitro-2,1,3-benzoxadiazol-7-yl)aminoethyl-phophatidylserine (Avanti Polar Lipids Inc., Alabaster, Ala.) was used to fluorescently label DOPS. DOPS in chloroform was mixed with NBD-PS in DMSO at the molar ratio of 3:1. The organic solvent was evaporated under nitrogen gas. Upon suspension in CP buffer (0.1 M Citrate Phosphate buffer, pH 5.6), the mixture solutions were bath sonicated for 30 mins at 4° C. This preparation was tested with SapC or SapB to measure the Kd for binding to DOPS. […]
(§2) The final concentration of the reaction mixtures ranged from GCase/SapC-DOPS-NBD of 1562 nM/7500 nM for the 1st point to 0.024 nM/7500 nM for the 16th point (FIG. 16, Table 3). […] The thermophoresis time was 30 secs with dual reading setting (LED: 20%/40%; MST: 40%/50%). […] The raw data were analyzed to determine Kd values and plotted using MO Affinity Analysis v2.1.3 software (NanoTemper, München, Germany).

In experiment [2] the target is T1, acid β-glucosidase (GCase), …. As to the kind of experiment: microscale thermophoresis (MST), NBD-PS labelled vesicles, CP buffer pH 5.6. How it is done: as §1, §2

B1: SapC-DOPS nanovesicles (saposin C with dioleoylphosphatidylserine) (other)
chain: SDVYCEVCEFLVKEVTKLIDNNKTEKEILDAFDKMCSKLPKSLSEECQEVVDTYGSSILSILLEEVSPELVCSMLHLCSG
Consider B1, for which the Kd in experiment [1] came to 29.4 nM.

B2: saposin B (SapB)-DOPS (other, UniProt P07602 195-273, looked up)
chain: GDVCQDCIQMVTDIQTAVRTNSTFVQALVEHVKEECDRLGPGMADICKNYISQYSEIAIQMMMHMQPKEICALVGFCDE
notes: SapB formulated with DOPS at a 1:7 molar ratio and labelled with NBD-PS
On to B2, for which the binding result in experiment [2] is “no binding”.

One may read the Kd as the equilibrium constant for the complex coming apart.

The values above are taken from patent US20230103407A1 (UNIVERSITY OF CINCINNATI, published 2023).
